Results taken from article PMC12872393, “NCOA4 initiates ferritinophagy by avidly binding GATE16 using two short linear interaction motifs” (Life Science Alliance, 2026).
Substitutions are numbered along the chain they refer to.

Biological target: (GST-GATE16)2, P60520
Assay: BLI
Conditions: chain shown with the change; 5 µM (GST-GATE16)2; NCOA4 construct immobilized to the probe; parent: est. 0.105; read off a plot

(GST-GATE16)2, P60520, sequence (P60520 whole entry): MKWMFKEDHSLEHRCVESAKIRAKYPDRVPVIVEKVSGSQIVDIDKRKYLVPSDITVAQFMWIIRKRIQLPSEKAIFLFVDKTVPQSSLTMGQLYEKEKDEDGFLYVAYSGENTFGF

B1: biotinylated AviTag-His6-NCOA4^383−522-MBP, Q13772 486F:A (protein)
chain: SMVTEDWLVQNHQDPCKVEEVCRANEPCTSFAECVCDENCEKEALYKWLLKKEGKDKNGMPVEPKPEPEKHKDSLNMWLCPRKEVIEQTKAPKAMTPSRIADSAQVIKNSPLSEWLIRPPYKEGSPKEVPGTEDRAGKQK
response: 0.026 nm

B2: biotinylated AviTag-His6-NCOA4^383−522-MBP, Q13772 413F:A (protein)
chain: B1 chain with F31A, A104F
response: 0.056 nm
